Reference: paper PMC4930934

Columns and labels:
[1] = molecular target: BMR–HFBI (diflavin reductase domain of P450 BM3 fused at its C-terminus to hydrophobin HFBI) (Bacillus megaterium | Trichoderma reesei) (UniProt P14779)
[2] = molecular target: BMR–HFBI (diflavin reductase domain of P450 BM3 fused at its C-terminus to hydrophobin HFBI) (Bacillus megaterium | Trichoderma reesei) (UniProt P14779); remark: listed apart in the source
[3] = molecular target: BMR–HFBI (diflavin reductase domain of P450 BM3 fused at its C-terminus to hydrophobin HFBI) (Bacillus megaterium | Trichoderma reesei) (UniProt P14779); remark: listed apart in the source

- conversion of myristic acid with cofactor regeneration, fivefold molar excess of reductase (1:5 μM), after 2 h [1]: 97%
- conversion of myristic acid with cofactor regeneration, equimolar ratio (1:1 μM), time course 2-24 h (49% after 2 h, 78% after 6 h, 99% after 24 h) [2]: 99%
- coupling efficiency (product formed per NADPH consumed) in myristic acid hydroxylation, P450:reductase 1:1 (1 μM each) [3]: 57.4%
- coupling efficiency (product formed per NADPH consumed) in myristic acid hydroxylation, P450:reductase 1:5 (1 μM : 5 μM) [3]: 92.7%
Substance: BMO–HFBI (monooxygenase domain of P450 BM3 fused at its C-terminus to hydrophobin HFBI) (from UniProt P14779 1-472; P52754 23-97)
